Literature values as cited in article PMC4336166.

Molecular target: clathrin coat (Homo sapiens) (UniProt Q00610)
Sequence of UniProt Q00610 (Q00610 2-1675): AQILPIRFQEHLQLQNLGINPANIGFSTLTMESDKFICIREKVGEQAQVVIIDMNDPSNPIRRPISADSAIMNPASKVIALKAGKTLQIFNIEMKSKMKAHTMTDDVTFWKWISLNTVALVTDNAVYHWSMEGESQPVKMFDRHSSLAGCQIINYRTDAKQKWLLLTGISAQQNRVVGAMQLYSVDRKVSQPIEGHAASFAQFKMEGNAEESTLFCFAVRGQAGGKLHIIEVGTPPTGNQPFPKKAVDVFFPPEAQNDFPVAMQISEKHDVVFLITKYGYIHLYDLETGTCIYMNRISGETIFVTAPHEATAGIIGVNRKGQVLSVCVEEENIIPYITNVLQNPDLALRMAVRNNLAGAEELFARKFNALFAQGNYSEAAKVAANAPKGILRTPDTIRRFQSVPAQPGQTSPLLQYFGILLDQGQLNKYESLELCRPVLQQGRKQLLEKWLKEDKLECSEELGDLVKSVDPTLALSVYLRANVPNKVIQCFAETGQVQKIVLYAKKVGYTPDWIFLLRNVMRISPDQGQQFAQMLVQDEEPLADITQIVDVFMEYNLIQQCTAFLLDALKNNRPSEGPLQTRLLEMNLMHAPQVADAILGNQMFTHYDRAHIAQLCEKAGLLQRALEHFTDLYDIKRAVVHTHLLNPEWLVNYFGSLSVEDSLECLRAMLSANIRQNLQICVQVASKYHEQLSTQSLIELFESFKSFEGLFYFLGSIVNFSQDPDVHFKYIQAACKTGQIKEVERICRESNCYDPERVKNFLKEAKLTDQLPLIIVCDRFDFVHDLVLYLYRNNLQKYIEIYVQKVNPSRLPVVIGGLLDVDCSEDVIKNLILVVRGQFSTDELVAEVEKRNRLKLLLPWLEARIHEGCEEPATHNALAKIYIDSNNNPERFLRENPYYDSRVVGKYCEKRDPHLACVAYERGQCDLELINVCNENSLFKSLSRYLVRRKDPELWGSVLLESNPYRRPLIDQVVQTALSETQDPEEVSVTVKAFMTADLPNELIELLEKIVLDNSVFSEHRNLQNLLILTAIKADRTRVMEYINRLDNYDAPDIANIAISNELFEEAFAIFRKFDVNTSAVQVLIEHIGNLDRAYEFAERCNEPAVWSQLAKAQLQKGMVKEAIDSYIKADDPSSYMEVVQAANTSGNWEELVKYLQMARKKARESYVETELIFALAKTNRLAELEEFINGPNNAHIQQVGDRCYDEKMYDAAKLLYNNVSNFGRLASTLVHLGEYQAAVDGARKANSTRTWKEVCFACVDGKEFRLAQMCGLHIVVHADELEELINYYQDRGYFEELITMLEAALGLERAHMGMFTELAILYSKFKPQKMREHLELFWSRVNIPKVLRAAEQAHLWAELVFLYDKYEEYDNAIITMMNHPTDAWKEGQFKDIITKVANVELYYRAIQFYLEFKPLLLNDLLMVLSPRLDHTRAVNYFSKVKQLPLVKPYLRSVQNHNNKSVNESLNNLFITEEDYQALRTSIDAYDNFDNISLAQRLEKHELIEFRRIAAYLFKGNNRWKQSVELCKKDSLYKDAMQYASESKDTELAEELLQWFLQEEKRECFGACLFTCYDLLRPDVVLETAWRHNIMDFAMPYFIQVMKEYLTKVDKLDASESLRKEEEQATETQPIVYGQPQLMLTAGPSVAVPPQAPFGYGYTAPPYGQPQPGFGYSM

- Kd: 123 µM
Substance: epsin CLAP domain (from UniProt Q9Y6I3)
